The numbers were not newly measured in paper PMC9254699 (Biomaterials science, 2021), which cites them from elsewhere.

Data set [1] has as its target T1, TGF-β1 (Homo sapiens, UniProt P01137).
The target of data set [2] is T1, TGF-β1. The source holds these as a separate data set.

T1 sequence (P01137 279-390 limits assumed, species assumed): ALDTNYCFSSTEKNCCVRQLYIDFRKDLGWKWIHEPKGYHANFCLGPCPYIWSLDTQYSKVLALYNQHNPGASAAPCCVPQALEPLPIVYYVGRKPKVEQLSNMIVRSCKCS

B1: decorin: molecule with activity against TGF-β1, explored preclinically as anti-fibrotic (protein, UniProt P07585 31-359, looked up)
Decorin: DEASGIGPEVPDDRDFEPSLGPVCPFRCQCHLRVVQCSDLGLDKVPKDLPPDTTLLDLQNNKITEIKDGDFKNLKNLHALILVNNKISKVSPGAFTPLVKLERLYLSKNQLKELPEKMPKTLQELRAHENEITKVRKVTFNGLNQMIVIELGTNPLKSSGIENGAFQGMKKLSYIRIADTNITSIPQGLPPSLTELHLDGNKISRVDAASLKGLNNLAKLGLSFNSISAVDNGSLANTPHLRELHLDNNKLTRVPGGLAEHKYIQVVYLHNNNISVVGSSDFCPPGHNTKKASYSGVSLFSNPVQYWEIQPSTFRCVYVRSAIQLGNYK
On to B1, for which, in the data set with TGF-β1 [1], the “direct binding to TGF-β1 or its receptors” value is “do not directly bind TGF-β1 or its receptors”. Also, the “activity against TGF-β1, preclinical anti-fibrotic” value in the data set with TGF-β1 [2] is “activity against TGF-β1”.

B2: γ-interferon: molecule with activity against TGF-β1, explored preclinically as anti-fibrotic (protein, UniProt P01579 24-161, looked up)
Interferon gamma: QDPYVKEAENLKKYFNAGHSDVADNGTLFLGILKNWKEESDRKIMQSQIVSFYFKLFKNFKDDQSIQKSVETIKEDMNVKFFNSNKKKRDDFEKLTNYSVTDLNVQRKAIHELIQVMAELSPAAKTGKRKRSQMLFRG
Take B2: in the data set with TGF-β1 [1], the “direct binding to TGF-β1 or its receptors” value is on record as “do not directly bind TGF-β1 or its receptors”. Besides, the “activity against TGF-β1, preclinical anti-fibrotic” value with TGF-β1 [2] is “activity against TGF-β1”.
